Sequences and labels used below:
B1: CACACA_negctrl_site1568 (dsDNA)
DNA 1: TTTTTTATAAATCAAATGAAAAATAAACTATTCAGA
DNA 2: TCTGAATAGTTTATTTTTCATTTGATTTATAAAAAA
B2: CACACA_negctrl_site884 (dsDNA)
DNA 1: TATTAATCTTTTTTTAAACAAAAAATTAAGCAAATT
DNA 2: AATTTGCTTAATTTTTTGTTTAAAAAAAGATTAATA
B3: CACACA_negctrl_site775 (dsDNA)
DNA 1: TTGTATCTTCATTTTATCAGAAAAAAAAAAAAAAAT
DNA 2: ATTTTTTTTTTTTTTTCTGATAAAATGAAGATACAA
B4: CACACA_negctrl_site170 (dsDNA)
DNA 1: TTTGTTAAAAATATATTATGAATAAAAATATATTTT
DNA 2: AAAATATATTTTTATTCATAATATATTTTTAACAAA
B5: CACACA_negctrl_site1281 (dsDNA)
DNA 1: TAAAATTAAATGAAATCATTATTCATTTTTATTTTA
DNA 2: TAAAATAAAAATGAATAATGATTTCATTTAATTTTA
B6: CACACA_negctrl_site333 (dsDNA)
DNA 1: GAATGAATGATAAATTTTTTTTTCTTTTTTTTTTTG
DNA 2: CAAAAAAAAAAAGAAAAAAAAATTTATCATTCATTC
B7: CACACA_negctrl_site169 (dsDNA)
DNA 1: TTATTTCTTCAGAAAAAATTAAAAAATTAAACAATA
DNA 2: TATTGTTTAATTTTTTAATTTTTTCTGAAGAAATAA
B8: CACACA_negctrl_site861 (dsDNA)
DNA 1: TTTTAAAAATTAAAAAAATTAAATGTAAAAAAATGA
DNA 2: TCATTTTTTTACATTTAATTTTTTTAATTTTTAAAA
B9: CACACA_negctrl_site1012 (dsDNA)
DNA 1: ATAATTTCTATTTCACAAAAAAAAAAAAAAAAAAAA
DNA 2: TTTTTTTTTTTTTTTTTTTTGTGAAATAGAAATTAT
B10: CACACA_site841 (dsDNA)
DNA 1: GGCATGACTATCTGCACACATAAAAATAAGAAATAC
DNA 2: GTATTTCTTATTTTTATGTGTGCAGATAGTCATGCC
B11: CACACA_negctrl_site8 (dsDNA)
DNA 1: AAATTATATATAATAAATAATTTCTTTTTCTAAAAG
DNA 2: CTTTTAGAAAAAGAAATTATTTATTATATATAATTT
B12: CACACA_negctrl_site1701 (dsDNA)
DNA 1: TTTTTTCAATTTTTTTTAAATAAACCACAAAAAAAA
DNA 2: TTTTTTTTGTGGTTTATTTAAAAAAAATTGAAAAAA
B13: CACACA_site9215 (dsDNA)
DNA 1: ATATATATATATATTCCACACACACCCAAAAAAAAA
DNA 2: TTTTTTTTTGGGTGTGTGTGGAATATATATATATAT
B14: CACACA_negctrl_site797 (dsDNA)
DNA 1: AAATGTATAATTTTTTAATACACTTATTTAAAATAA
DNA 2: TTATTTTAAATAAGTGTATTAAAAAATTATACATTT
B15: CACACA_negctrl_site736 (dsDNA)
DNA 1: TACTTATATTATTTTATTATTAAATTTAAAACGAAA
DNA 2: TTTCGTTTTAAATTTAATAATAAAATAATATAAGTA
B16: CACACA_negctrl_site82 (dsDNA)
DNA 1: TTTTGTTTCTATATAAGATGGAAATATAAACTTGTA
DNA 2: TACAAGTTTATATTTCCATCTTATATAGAAACAAAA
B17: CACACA_negctrl_site159 (dsDNA)
DNA 1: TTTTTTTATTATTCTTATATAAAAATTTTTTTTAAT
DNA 2: ATTAAAAAAAATTTTTATATAAGAATAATAAAAAAA
B18: CACACA_negctrl_site1118 (dsDNA)
DNA 1: ATTATCAAAAAAAAAAAAAAAAAAAAAAAAAAAAAA
DNA 2: TTTTTTTTTTTTTTTTTTTTTTTTTTTTTTGATAAT
B19: CACACA_negctrl_site1706 (dsDNA)
DNA 1: TTACACATATTTTTAATTATTCTGAATTCAAAAAAA
DNA 2: TTTTTTTGAATTCAGAATAATTAAAAATATGTGTAA
B20: CACACA_negctrl_site65 (dsDNA)
DNA 1: ATTAAAAATTATATTTTATAAAAATTAAAAGAAATA
DNA 2: TATTTCTTTTAATTTTTATAAAATATAATTTTTAAT
B21: CACACA_negctrl_site473 (dsDNA)
DNA 1: TATTTAATTATATAAAATTAAATTTTTAATTCTTCC
DNA 2: GGAAGAATTAAAAATTTAATTTTATATAATTAAATA
B22: CACACA_negctrl_site1823 (dsDNA)
DNA 1: TATTTCATCTTATTTTAGGAAAAACTAATATATAAG
DNA 2: CTTATATATTAGTTTTTCCTAAAATAAGATGAAATA
B23: CACACA_negctrl_site344 (dsDNA)
DNA 1: TTTTGAATATGGATCTTATATATATTAAATAAATAA
DNA 2: TTATTTATTTAATATATATAAGATCCATATTCAAAA
B24: CACACA_negctrl_site1467 (dsDNA)
DNA 1: TTATATAATGACAAAAAAAAAAAAAAAAAAAAAAAA
DNA 2: TTTTTTTTTTTTTTTTTTTTTTTTGTCATTATATAA
B25: CACACA_negctrl_site1629 (dsDNA)
DNA 1: TTTTTCTTTCTATTTATCAATATTAAAAAAAAAAAA
DNA 2: TTTTTTTTTTTTAATATTGATAAATAGAAAGAAAAA
B26: CACACA_site1322 (dsDNA)
DNA 1: CACGAACACAAACACAAACACACATCATATATATAT
DNA 2: ATATATATATGATGTGTGTTTGTGTTTGTGTTCGTG
B27: CACACA_negctrl_site442 (dsDNA)
DNA 1: TGGTTTCAATAATTAATAAAATATATTATTGTGAAA
DNA 2: TTTCACAATAATATATTTTATTAATTATTGAAACCA
B28: CACACA_negctrl_site108 (dsDNA)
DNA 1: TTTTTAATTTAAAAAAATAATATTTTATATTCCGAA
DNA 2: TTCGGAATATAAAATATTATTTTTTTAAATTAAAAA
B29: CACACA_site1334 (dsDNA)
DNA 1: ATTACATACACGCGCACACACAAAAAAAAAAAAAAA
DNA 2: TTTTTTTTTTTTTTTGTGTGTGCGCGTGTATGTAAT
B30: CACACA_site1127 (dsDNA)
DNA 1: TATTTTTCCATATGCACACACACCGTATATATAATA
DNA 2: TATTATATATACGGTGTGTGTGCATATGGAAAAATA

This data set has as its target T1, AP2-LT D1 (Plasmodium falciparum, UniProt Q8IAM1 2520-2577).
T1 sequence: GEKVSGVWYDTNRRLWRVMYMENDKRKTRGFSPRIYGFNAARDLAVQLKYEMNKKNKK
Put plainly: gcPBM; about 25 ug protein; PBS, 1% milk, 0.2 mg/ml BSA, salmon testes DNA, 0.03% Triton X-100. The note with it: tags: N-terminal GST (pGEX-4T-1), kept; label: surface-attached array probe.
Turning to B1, the binding signal was 8.3 ln median PBM intensity, better of two orientations.

With B2, the binding signal is 8.28 ln median PBM intensity, better of two orientations.

With B3, the binding signal was 8.43 ln median PBM intensity, better of two orientations.

B4: the binding signal is 8.37 ln median PBM intensity, better of two orientations.

As to B5, the binding signal was 8.47 ln median PBM intensity, better of two orientations.

As for B6, the binding signal is 8.4 ln median PBM intensity, better of two orientations.

Take B7: the binding signal is 8.53 ln median PBM intensity, better of two orientations.

Consider B8, for which the binding signal is 8.44 ln median PBM intensity, better of two orientations.

For B9, the binding signal is 8.47 ln median PBM intensity, better of two orientations.

With B10, the binding signal is 9.74 ln median PBM intensity, better of two orientations.

For B11, the binding signal was 8.42 ln median PBM intensity, better of two orientations.

With B12, the binding signal is 8.15 ln median PBM intensity, better of two orientations.

For the molecule B13, the binding signal is 9.85 ln median PBM intensity, better of two orientations.

Regarding B14, the binding signal is 8.49 ln median PBM intensity, better of two orientations.

Consider B15, for which the binding signal is 8.39 ln median PBM intensity, better of two orientations.

For the molecule B16, the binding signal is 8.52 ln median PBM intensity, better of two orientations.

In the case of B17, the binding signal is 8.48 ln median PBM intensity, better of two orientations.

Regarding B18, the binding signal is 8.29 ln median PBM intensity, better of two orientations.

Turning to B19, the binding signal was 8.38 ln median PBM intensity, better of two orientations.

With B20, the binding signal is 8.5 ln median PBM intensity, better of two orientations.

For the molecule B21, the binding signal is 8.5 ln median PBM intensity, better of two orientations.

In the case of B22, the binding signal was 8.32 ln median PBM intensity, better of two orientations.

As for B23, the binding signal was 8.27 ln median PBM intensity, better of two orientations.

B24: the binding signal was 8.49 ln median PBM intensity, better of two orientations.

Take B25: the binding signal is 8.1 ln median PBM intensity, better of two orientations.

As for B26, the binding signal is 9.81 ln median PBM intensity, better of two orientations.

For B27, the binding signal is 8.47 ln median PBM intensity, better of two orientations.

For the molecule B28, the binding signal is 8.25 ln median PBM intensity, better of two orientations.

In the case of B29, the binding signal was 9.87 ln median PBM intensity, better of two orientations.

Regarding B30, the binding signal was 9.79 ln median PBM intensity, better of two orientations.

The values above are taken from publication PMC11417369, “DNA sequence and chromatin differentiate sequence-specific transcription factor binding in the human malaria parasite Plasmodium falciparum”.
